Experimental data as given in article PMC5511259.

Molecular target: Hd1 segment (aa112–337) between the zinc finger domain and the CCT domain (rice (Oryza sativa L.)) (UniProt Q9FDX8)
Sequence of UniProt Q9FDX8 (Q9FDX8 112-337): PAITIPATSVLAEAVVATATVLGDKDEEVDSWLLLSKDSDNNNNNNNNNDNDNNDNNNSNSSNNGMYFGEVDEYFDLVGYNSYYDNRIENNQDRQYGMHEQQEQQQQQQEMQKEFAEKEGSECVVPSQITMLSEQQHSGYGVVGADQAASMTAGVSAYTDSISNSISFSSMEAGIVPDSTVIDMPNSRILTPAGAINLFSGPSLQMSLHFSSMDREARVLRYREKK

- relative LUC activity activated by GAL4-Hd1^ZS (full-length CDS of Hd1 from ZS97) in rice protoplasts with increasing dosage of 35S:Ghd7-CFP (2, 4, 10 μg); decreased from 7.0 to 0.8 (relative LUC activity): 7
Substance: Ghd7 (aa187–257) segment containing the CCT domain (from UniProt E5RQA1 187-257) (domain or fragment)
